Measured values: patent US20250171549A1
Several values for one entry are separate records, joined by “and”; a condition that tells them apart may be missing. Equal entries are not always repeated.

Legend:
[1] = target: human CCR8 (human) (UniProt P51685); assay: flow cytometry, HuT78 cells, 5 ug/mL
[2] = target: human CCR8 with an A27G point mutation (human) (UniProt P51685); assay: flow cytometry, HEK293T transfectants, 5 ug/mL
[3] = target: P_1-12 construct (truncated N-terminal peptide of human CCR8 fused to V5 tag, chicken albumin, FLAG tag, BAP and H3G) (human); assay: flow cytometry, construct on streptavidin beads
[4] = target: P_1-35 construct (full-length N-terminal peptide of human CCR8 fused to V5 tag, chicken albumin, FLAG tag, BAP and H3G) (human); assay: flow cytometry, construct on streptavidin beads
Chain of P_1-35 construct (full-length N-terminal peptide of human CCR8 fused to V5 tag, chicken albumin, FLAG tag, BAP and H3G) (human) (chain, as listed by the source): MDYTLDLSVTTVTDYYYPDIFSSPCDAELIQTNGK

[5] = target: P_13-24 construct (truncated N-terminal peptide of human CCR8 fused to V5 tag, chicken albumin, FLAG tag, BAP and H3G) (human); assay: flow cytometry, construct on streptavidin beads
[6] = target: P_19-30 construct (truncated N-terminal peptide of human CCR8 fused to V5 tag, chicken albumin, FLAG tag, BAP and H3G) (human); assay: flow cytometry, construct on streptavidin beads
[7] = target: T1, P_25-35 construct (truncated N-terminal peptide of human CCR8 fused to V5 tag, chicken albumin, FLAG tag, BAP and H3G) (human); assay: flow cytometry, construct on streptavidin beads
T1 sequence (chain, biotinylated in vivo at BAP): CDAELIQTNGK

[8] = target: P_7-18 construct (truncated N-terminal peptide of human CCR8 fused to V5 tag, chicken albumin, FLAG tag, BAP and H3G) (human); assay: flow cytometry, construct on streptavidin beads
[9] = target: human CCR8 (human) (UniProt P51685); assay: flow cytometry, primary human Tregs (PBMC, CD4+CD25+CD127- gate)
[10] = target: cynomolgus monkey CCR8 (comprising threonine at position four) (cynomolgus monkey); assay: flow cytometry, primary cynomolgus Tregs (PBMC, CD4+CD25+CD127- gate)
Chain of cynomolgus monkey CCR8 (comprising threonine at position four) (cynomolgus monkey) (O97665 other isoform, or with tags, fused parts or gaps): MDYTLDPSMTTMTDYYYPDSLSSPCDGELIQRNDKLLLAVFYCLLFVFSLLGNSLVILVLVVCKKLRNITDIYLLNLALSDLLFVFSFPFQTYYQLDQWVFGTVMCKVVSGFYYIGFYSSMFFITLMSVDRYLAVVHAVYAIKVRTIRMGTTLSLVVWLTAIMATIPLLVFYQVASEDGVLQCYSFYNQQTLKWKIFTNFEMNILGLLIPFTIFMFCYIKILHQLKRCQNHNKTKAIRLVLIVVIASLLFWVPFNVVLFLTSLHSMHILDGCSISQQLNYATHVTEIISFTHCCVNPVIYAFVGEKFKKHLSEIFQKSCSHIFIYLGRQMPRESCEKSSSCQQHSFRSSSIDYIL

[11] = target: murine CCR8 (murine) (UniProt P56484); assay: flow cytometry, HEK293T transfectants, 5 ug/mL
Chain of murine CCR8 (murine) (P56484 whole entry): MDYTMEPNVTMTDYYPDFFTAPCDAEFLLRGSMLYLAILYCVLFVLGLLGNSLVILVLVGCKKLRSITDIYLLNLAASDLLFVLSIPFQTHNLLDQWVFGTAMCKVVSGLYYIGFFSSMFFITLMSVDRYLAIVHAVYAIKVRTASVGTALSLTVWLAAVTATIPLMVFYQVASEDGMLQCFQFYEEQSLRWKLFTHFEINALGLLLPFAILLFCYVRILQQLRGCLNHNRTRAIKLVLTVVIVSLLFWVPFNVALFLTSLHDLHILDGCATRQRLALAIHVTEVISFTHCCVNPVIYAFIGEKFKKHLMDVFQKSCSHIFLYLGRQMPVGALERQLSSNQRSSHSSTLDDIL

[12] = target: rat CCR8 (rat); assay: flow cytometry, HEK293T transfectants, 5 ug/mL
Chain of rat CCR8 (rat) (P56484 other isoform, or with tags, fused parts or gaps): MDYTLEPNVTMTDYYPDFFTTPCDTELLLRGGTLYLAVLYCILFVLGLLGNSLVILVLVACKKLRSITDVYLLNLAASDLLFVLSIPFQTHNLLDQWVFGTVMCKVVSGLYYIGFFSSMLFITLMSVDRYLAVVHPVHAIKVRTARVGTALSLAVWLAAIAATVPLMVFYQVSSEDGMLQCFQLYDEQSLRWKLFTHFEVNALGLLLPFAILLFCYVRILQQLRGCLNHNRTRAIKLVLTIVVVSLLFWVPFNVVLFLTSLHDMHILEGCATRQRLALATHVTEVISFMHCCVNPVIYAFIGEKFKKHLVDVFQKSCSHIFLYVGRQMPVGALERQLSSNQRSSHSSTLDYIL

[13] = target: cynomolgus monkey CCR8 (comprising threonine at position four) (cynomolgus monkey); assay: flow cytometry, primary cynomolgus Tregs, purified antibody 20 ug/ml

Chain of human CCR8 (human) (P51685 whole entry): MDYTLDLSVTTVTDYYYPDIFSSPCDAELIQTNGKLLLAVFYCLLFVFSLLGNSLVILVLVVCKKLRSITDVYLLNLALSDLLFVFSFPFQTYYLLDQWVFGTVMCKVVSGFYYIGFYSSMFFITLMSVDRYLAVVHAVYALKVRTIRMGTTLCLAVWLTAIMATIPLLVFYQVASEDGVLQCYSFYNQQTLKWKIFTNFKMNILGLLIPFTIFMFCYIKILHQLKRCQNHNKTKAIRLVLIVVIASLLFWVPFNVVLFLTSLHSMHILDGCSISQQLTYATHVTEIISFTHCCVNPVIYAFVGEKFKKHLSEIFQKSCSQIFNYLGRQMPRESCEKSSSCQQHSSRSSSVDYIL
Chain of anti-human CCR8 antibody clone 433H (BD 747578) (VH): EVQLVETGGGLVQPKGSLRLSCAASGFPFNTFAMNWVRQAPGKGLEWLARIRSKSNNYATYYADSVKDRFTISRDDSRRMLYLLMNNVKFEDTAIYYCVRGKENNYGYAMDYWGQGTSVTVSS
Chain of anti-human CCR8 antibody clone 433H (BD 747578) (VL): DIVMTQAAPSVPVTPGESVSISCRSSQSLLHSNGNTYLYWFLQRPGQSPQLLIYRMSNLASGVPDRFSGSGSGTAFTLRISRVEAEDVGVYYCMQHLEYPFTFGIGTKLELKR
Chain of human CCR8 with an A27G point mutation (human) (P51685 whole entry A27G, the tested form may be a part): as the sequence (P51685 whole entry) above, with A27G counted along it

Substance | binding by FACS (read-out not named) [1] | binding by FACS (read-out not named) [2] | Median Fluorescence of Sample/Median Fluorescence of Negative Control [3] | Median Fluorescence of Sample/Median Fluorescence of Negative Control [4] | Median Fluorescence of Sample/Median Fluorescence of Negative Control [5] | Median Fluorescence of Sample/Median Fluorescence of Negative Control [6] | Median Fluorescence of Sample/Median Fluorescence of Negative Control [7] | Median Fluorescence of Sample/Median Fluorescence of Negative Control [8] | CCR8+CD127-CD25+CD4, % positive [9] | CCR8+CD127-CD25+CD4, % positive [10] | binding by FACS (read-out not named) [11] | binding by FACS (read-out not named) [12] | CCR8+CD127-CD25+CD4, % positive [13]
anti-human CCR8 antibody clone L263G8 (BioLegend, 360602) | 4500 | 41400 | 0.9 | 751 | 285 | 0.9 | 0.9 | 0.9 |  |  |  |  | 
Hu IgG2b (antibody) |  |  |  |  |  |  |  |  | 1.5% and 0% and 1.9% | 11.9% and 11.3% |  |  | 
anti-V5 antibody (clone SV5-Pk1; AbD Serotec, MCA 1360) |  |  | 1090 | 953 | 1300 | 1020 | 1090 | 1090 |  |  |  |  | 
Negative control (Table 6) |  |  | 1 | 1 | 1 | 1 | 1.1 | 1 |  |  |  |  | 
anti-FLAG antibody (clone M2, Sigma F3165/F1804) |  |  | 596 | 522 | 628 | 590 | 582 | 589 |  |  |  |  | 
Cyno IgG2a (antibody) |  |  |  |  |  |  |  |  | 0% and 0.1% | 0.3% and 0.8% |  |  | 
SA214G2 (antibody) |  |  |  |  |  |  |  |  |  |  | 56800 | 1590 | 
anti-human CCR8 antibody clone 433H (BD 747578) |  |  | 0.9 | 290 | 300 | 0.9 | 0.9 | 0.9 |  |  |  |  | 66.2% and 63.7%
